In article PMC4911334:

Target: minimal functional rat TRPV1 construct, tetramer reconstituted in lipid nanodisc (rat) (UniProt O35433)
Assay: cryo-EM structure

Chain of UniProt O35433 (O35433 whole entry): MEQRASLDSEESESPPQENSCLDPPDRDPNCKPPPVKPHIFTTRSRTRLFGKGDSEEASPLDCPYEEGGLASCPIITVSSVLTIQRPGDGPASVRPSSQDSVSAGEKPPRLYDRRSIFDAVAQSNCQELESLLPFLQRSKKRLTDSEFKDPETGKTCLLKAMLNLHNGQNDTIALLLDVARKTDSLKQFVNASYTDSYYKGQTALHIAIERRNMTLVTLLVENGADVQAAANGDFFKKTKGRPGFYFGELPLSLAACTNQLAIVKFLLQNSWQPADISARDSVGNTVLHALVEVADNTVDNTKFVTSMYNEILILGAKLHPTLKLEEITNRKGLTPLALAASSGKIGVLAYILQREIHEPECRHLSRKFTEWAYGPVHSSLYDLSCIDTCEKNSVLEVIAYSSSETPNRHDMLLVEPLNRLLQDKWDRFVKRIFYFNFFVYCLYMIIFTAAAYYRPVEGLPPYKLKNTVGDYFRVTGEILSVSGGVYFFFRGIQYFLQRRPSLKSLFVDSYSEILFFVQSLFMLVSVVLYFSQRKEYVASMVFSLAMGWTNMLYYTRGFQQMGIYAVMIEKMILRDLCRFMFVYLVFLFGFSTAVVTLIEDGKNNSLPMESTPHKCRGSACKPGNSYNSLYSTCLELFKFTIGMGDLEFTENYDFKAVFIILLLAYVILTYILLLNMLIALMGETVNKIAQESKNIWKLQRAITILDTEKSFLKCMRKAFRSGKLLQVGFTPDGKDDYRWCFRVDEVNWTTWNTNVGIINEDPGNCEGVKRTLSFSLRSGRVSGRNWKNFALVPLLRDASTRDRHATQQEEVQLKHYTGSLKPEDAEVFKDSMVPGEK

B1: double-knot toxin (DkTx) (peptide)
chain: DCAKEGEVCSWGKKCCDLDNFYCPMEFIPHCKKYKPYVPVTTNCAKEGEVCGWGSKCCHGLDCPLAFIPYCEKYRGRND
B1 gave a stoichiometry N (DkTx per TRPV1 tetramer) of 2.
